The chains are these.
T1: Med4 (recombinant) (S. cerevisiae, UniProt Q12343 1-284)
T1 sequence: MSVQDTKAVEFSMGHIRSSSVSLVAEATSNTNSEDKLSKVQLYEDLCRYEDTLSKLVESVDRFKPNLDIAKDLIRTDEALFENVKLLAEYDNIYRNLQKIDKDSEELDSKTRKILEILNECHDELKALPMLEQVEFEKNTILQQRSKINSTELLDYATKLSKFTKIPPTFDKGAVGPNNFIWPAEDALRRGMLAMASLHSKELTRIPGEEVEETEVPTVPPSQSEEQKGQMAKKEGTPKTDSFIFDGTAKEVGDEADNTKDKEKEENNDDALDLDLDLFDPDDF

B1: 4-subunit middle module complex Med7/10/21/31-His6 (complex)
chain 1: MSNDPGNEVSSLYPPPPPYVKFFTQSNLEKLPKYKEKKAASAKQTAPNNSNGGSEEEITCALDYLIPPPMPKNQQYRAFGSIWQVKDQLPDLESMGLTQLYKKSTENESTNYQYKIQELRKLLKSLLLNYLELIGVLSINPDMYERKVENIRTILVNIHHLLNEYRPHQSRESLIMLLEEQLEYKRGEIREIEQVCKQVHDKLTSIQDTLRTGSQSPPSSSQ
chain 2: MNGNSTNNEQLQQELATTQDQVASIIESFVELGVSIYDFPGTPEATKGMITNLQRNVDRLYKLNVRSNDPQSSLSKVDIPLEVVQYIEDGRNPDIYTREFVEAIRRSNQYQRGKMHGLKQLRDSLADKIVDEFPELKEPVEDIIKRTSPIDNVSNTH
chain 3: MTDRLTQLQICLDQMTEQFCATLNYIDKNHGFERLTVNEPQMSDKHATVVPPEEFSNTIDELSTDIILKTRQINKLIDSLPGVDVSAEEQLRKIDMLQKKLVEVEDEKIEAIKKKEKLLRHVDSLIEDFVDGIANSKKST
chain 4: […]
B2: Med7 (recombinant) (natural protein)
chain: B1 chain 1
B3: Med10 (recombinant) (natural protein)
chain: B1 chain 2
B4: Med21 (recombinant) (natural protein)
chain: B1 chain 3
B5: StrepII-tagged Med1 (natural protein)
chain: MVEGDSYVETLDSMIELFKDYKPGSITLENITRLCQTLGLESFTEELSNELSRLSTASKIIVIDVDYNKKQDRIQDVKLVLASNFDNFDYFNQRDGEHEKSNILLNSLTKYPDLKAFHNNLKFLYLLDAYSHIESDSTSHNNGSSDKSLDSSNASFNNQGKLDLFKYFTELSHYIRQCFQDNCCDFKVRTNLNDKFGIYILTQGINGKEVPLAKIYLEENKSDSQYRFYEYIYSQETKSWINESAENFSNGISLVMEIVANAKESNYTDLIWFPEDFISPELIIDKVTCSSNSSSSPPIIDLFSNNNYNSRIQLMNDFTTKLINIKKFDISNDNLDLISEILKWVQWSRIVLQNVFKLVSTPSSNSNSSELEPDYQAPFSTSTKDKNSSTSNTEPIPRSNRHGSVVEASRRRRSSTNKSKRPSITEAMMLKEEGLQQFNLHEILSEPAIEEENGDSIKEHSTTMDGANDLGFTASVSNQENAGTDIVMEDHGVLQGTSQNYGTATADDADIEMKDVSSKPSKPESSVLQLIVSEDHIILDTISECNLYDDVKCWSKFIEKFQDIVS
B6: Med9 (recombinant) (natural protein)
chain: MNLQNNVLNQIHQILLPTNPTLDKPNAEATKEEFSSAENRDEKDYLTNQQPKNLSTPSTSSNGEFIPHIFYSLHQIRKDPNNLSNQLETLTGSIRHRLKLCKSLISENEDTKDLLSKSPSEWQDIIHQREQELQIKRDVLDDLYRKLQR
B7: Med4/9 heterodimer (complex)
chain 1: T1 sequence
chain 2: B6 chain
B8: 6-subunit middle module complex Med4/7/9/10/21/31 (complex)
chain 1: T1 sequence
chain 2: B1 chain 1
chain 3: B6 chain
chain 4: B1 chain 2
chain 5: B1 chain 3
chain 6: […]

Data set [1] concerns the molecule itself. Briefly: native MS.
Data set [2] has as its target T1, Med4 (recombinant). Briefly: native MS.
The target in data set [3] is B2. Briefly: native MS.
In data set [4] the target is 6-subunit complex Med4/7/9/10/21/31 of the coexpressed 7-subunit middle module (S. cerevisiae, UniProt Q12343;Q08278;P33308;Q06213;P47822;P38633). As to the kind of experiment: native MS.
Data set [5] deals with T1, Med4 (recombinant). As to the kind of experiment: copurification after coexpression.
Data set [6] deals with B1. As to the kind of experiment: native MS.

Turning to B1, the “stoichiometry N” value in data set [1] turned out to be 2.
With B2, the binding result in data set [2] was “binds”.
Take B3: the binding result in data set [3] was “binds”.
Still for that read-out and setting: next, B4: “binds”.
As to B5, the “stoichiometry N” value in data set [4] stood at 1.
With B6, the binding result in data set [5] is given as “binds”.
Turning to B7, the “stoichiometry N” value in data set [6] turned out to be 1.
For the molecule B8, the “stoichiometry N” value in data set [1] came out at 2.

The term stoichiometry N denotes the number of molecules, sites or subunits per partner or assembly.
